Consider one molecule from EP4201483A1 (Eberhard-Karls-Universität Tübingen, dated 2023).

The target in this assay is T1, human heat shock protein Hsp90α (human, UniProt P07900 2-732).
T1 construct: Target protein of the dot blot assay
Briefly: dot blot assay, direct interaction with Hsp90α.

Take DEIVKELRSRYNIST [SNC1 (15aa)]: the binding result is given as “no binding”.
